Source: US6685944
Where two headings read alike, the source gives them in different places.

Assays:
[1] = target: HLA-A2.1 on TAP-deficient T2 cells (human); experiment: T2 cell HLA-A2.1 stabilisation assay, flow cytometry with BB7.2
[2] = target: HLA-A2.1 on TAP-deficient T2 cells (human); conditions: remark: other sources report otherwise

In the case of DLMGYIPVV (modifications not checked) [C7A2-8V peptide], the FI0.5 [1] is reported as 15 µM.

Work on DLMGYIPLV (modifications not checked) [wild-type C7A2 peptide (C7A2-WT)] yielded an FI0.5 [2] of 10 µM.
